Results on five molecules are retold here after US20240168030A1, “DIRECT FLUORESCENT GLYCAN LABELING” (BIO-TECHNE CORPORATION, priority 2019, published 2024).

One series has as its target T1, FUT9 (Homo sapiens, UniProt Q9Y231).
T1 construct: purchased Bio-Techne (Minneapolis, MN)
T1 sequence (Q9Y231 1-359): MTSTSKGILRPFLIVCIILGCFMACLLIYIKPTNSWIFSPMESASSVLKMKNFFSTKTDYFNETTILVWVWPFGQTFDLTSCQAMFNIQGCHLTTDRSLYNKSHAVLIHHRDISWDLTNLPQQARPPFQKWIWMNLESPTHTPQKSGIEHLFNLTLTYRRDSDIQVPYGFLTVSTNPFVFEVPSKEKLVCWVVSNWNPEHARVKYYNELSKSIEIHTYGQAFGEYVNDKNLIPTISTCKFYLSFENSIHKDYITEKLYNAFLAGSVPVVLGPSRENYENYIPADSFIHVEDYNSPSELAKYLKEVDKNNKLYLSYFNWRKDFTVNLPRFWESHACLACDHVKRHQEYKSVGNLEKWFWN
Kind of series: Fluorescent labeling with fluorophore-conjugated fucose by FUT9. The class given is biochemical. The note with it: 0.3 μg FUT9, 0.2 nmol donor, 30 μl, 37° C., FIG. 17. On the procedure:
(§1) FIG. 9A-FIG. 9B show exemplary results of probing substrate glycans of various fucosyltransferases on fetuin and asialofetuin. FIG. 9A. Probing substrate glycans of fucosyltransferases with guanosine 5′-diphosphate activated Cy5 conjugated fucose (GDP-Cy5-Fuc). […] FUT9 labeled itself (indicated by an arrow in the gel). FIG. 9B. Tolerance of Alexa-Fluor®555 (555), Alexa-Fluor®488 (488), and Cy5 by the indicated fucosyltransferases. All reactions were incubated at 37° C. for 30 minutes and then separated on SDS-PAGE and imaged with silver staining (upper panels) and fluorescent imager (lower panels). M, molecular marker.
FIG. 10A-FIG. 10D show exemplary results of probing core-6 fucosylation on antibodies by FUT8 incorporation of fluorophores. FIG. 10A. Results of probing substrate glycans of FUT8 (F8) and FUT9 (F9) on Cantuzumab, an anti-Muc1 therapeutic antibody, and NIST reference mAb 8671 using guanosine 5′-diphosphate activated Alexa-Fluor®555 conjugated fucose (GDP-AF555-Fuc) (555), GDP-Cy5-fucose (Cy5), and guanosine 5′-diphosphate activated Alexa-Fluor®488 conjugated fucose (GDP-AF488-Fuc) (488) as donor substrates. Cantuzumab was expressed in FUT8 knockout cells and is devoid of core-6 fucose. Molecular marker (MM) is a prestained Western molecular marker (Bio-Rad Laboratories, Hercules, CA). […] The product of each reaction was separated using SDS-PAGE and imaged with trichloroethanol (TCE) staining (upper panel) and fluorescent imager (lower panel). Labeling on the light chains of the antibodies by Alexa-Fluor®555 is likely the result of non-specific staining due to the use of unpurified GDP-AF555-Fuc that contained free Alexa-Fluor®555. FIG. 10B. […] FIG. 10C. […] FIG. 10D. Schematics of the glycan structures analyzed in FIG. 10B and FIG. 10C.
Mouse IgG (R&D Systems, Minneapolis, MN) was digested with Endo S thoroughly and labeled with 0.3 μg of FUT9 and 0.2 nmol of GDP-Cy5-Fuc in 30 μl at 37° C. for the indicated time points. The glycans were also pretreated with B4GalT2 for 5 minutes at 37° C. and then labeled in the same way. The reactions were separated on 15% SDS PAGE. B4GalT2 pretreatment converted all G1′ to G2′. Maximal labeling on G1′ and G2′ were achieved around 30 minutes. […] The heavy chain (HC) and light chain (LC) were visible in the TCE image. M, Western blot marker (Bio-Rad Laboratories, Hercules, CA).
(§2) For a typical labeling reaction, 1 μg to 5 μg target protein was mixed with 0.2 nmol GDP-f-Fuc and 0.2 μg of a fucosyltransferase in 30 μL buffer of 25 mM Tris pH 7.5, 10 mM MnCl2. The mixture was incubated at 37° C. for 30 minutes. The reaction was then separated by sodium dodecyl sulfate—polyacrylamide gel electrophoresis (SDS-PAGE) and the gel was directly imaged using a fluorescent imager FluorChem M ProteinSimple, Bio-Techne, Minneapolis, MN), followed by imaging with traditional protein imaging methods such as silver staining or trichloroethanol (TCE) staining.
The four enzymes tolerated the three fluorophores to different levels.

In series [1] the test system is fetal bovine fetuin and asialofetuin. Kind of series: Labeling of fetuin and asialofetuin by fucosyltransferases with GDP-Cy5-Fuc. It counts as biochemical. The conditions noted are these: GDP-Cy5-Fuc donor, FIG. 9A. As to the method:
as §1, §2
The labeled samples were then separated on SDS-PAGE, followed by traditional protein gel imaging and fluorescent imaging.

The nature of series [2]: Enzymatic synthesis of Le^x and sLe^x by glycan gel electrophoresis, substrate G2. It counts as biochemical. The conditions noted are these: for Relative activity: normalized to FUT6 on sLe^x synthesis. As to the method:
FIG. 21A. Schematic view of the enzymatic steps for Le^X and sLe^X synthesis on the antibody glycan G0. The glycan short names follow that of FIG. 10. FIG. 21B Kinetic comparison of galactosylation on G0 by B4GalT1, sialyation on G2 by ST3Gal4 and ST6Gal1, and fucosylation on A2[3] by FUT7. The reaction time for B4GalT1 was 10 minutes. The reaction time for ST3Gal4, FUT7 and ST6Gal1 was 5 hours. In each case, the labeling enzyme was subject to a 3-fold serial dilution starting from 1 μg each of B4GalT1, FUT7 and ST6Gal1, and 3 μg ST3Gal4. FIG. 21C. […] Reaction time for both cases was 20 minutes. […] FIG. 21D. […] Reaction time for both cases was 20 minutes.
For a typical labeling reaction, 1 μg to 5 μg target protein was mixed with 0.2 nmol fluorophore-conjugated GDP-fucose and 0.2 μg of a fucosyltransferase in 30μL 25 mM Tris pH 7.5, 10 mM MnCl2. The mixture was incubated at 37° C. for 30 minutes. […] To release labeled glycans from a glycoprotein, the sample was first denatured by heating at 95° C. for two minutes in the presence of 0.5% SDS and 80 mM β-mercaptoethanol and then renatured with 1% Triton X-100, and finally treated with PNGase F at 10:1 mass ratio at 37° C. for 20 minutes. To release glycans from antibody, a sample was directly treated with Endo S at 10:1 mass ratio at 37° C. for 20 minutes. All samples were separated by sodium dodecyl sulfate—polyacrylamide gel electrophoresis (SDS-PAGE) at […]. For separating labeled glycoproteins and antibodies, 4-20% gradient SDS gel was used. For separating labeled free glycans, 15% or 17% gel was used. After separation, all gels were imaged using a FluorChem M imager (ProteinSimple, Bio-Techne, Minneapolis, MN). For glycoproteins samples, the gel was also imaged with traditional methods such as silver staining or trichloroethanol (TCE) staining.
For sLe^x synthesis, G0 was first converted to G2 by B4GalT1, then converted to A2[3] by ST3Gal4, and finally converted to A2[3]F2 (carrier of sLe^x) by FUT7 (FIG. 21A). During these steps, different amounts of enzymes, and multiple reaction times were applied to reveal the intermediate products.
Intermediate products are signs for the progress of each enzymatic step.

Series [3] relates to fetal bovine fetuin and asialofetuin. The experiment in a line: Labeling of fetuin and asialofetuin by sialyltransferases with CMP-f-SA. The conditions noted are these: CMP-f-SA donors, FIG. 2. It counts as biochemical.
In a further series the test system is asialofetuin. Kind of series: Asialofetuin labeling with variable amounts of ST3Gal1 or ST6Gal1 (FIG. 7). It counts as biochemical, bovine. The note with it: 5 μg asialofetuin, 0.2 nmol CMP-Cy5-SA, 30 μL, 37° C., 30 minutes.

On to “guanosine 5′-diphosphate activated Cy5 conjugated fucose [GDP-Cy5-Fuc]”, for which the “Time to maximal labeling of B4GalT2 by FUT9” value on FUT9 was found to be 20 min. Also, the “Time to maximal labeling on G1′ and G2′ by FUT9” value on FUT9 (Endo S digested mouse IgG) was “around 30 minutes”.

B1: FUT9: recombinant α-3 fucosyltransferase strictly active on lactosamine (protein, UniProt Q9Y231 1-359, looked up)
4-galactosyl-N-acetylglucosami …: MTSTSKGILRPFLIVCIILGCFMACLLIYIKPTNSWIFSPMESASSVLKMKNFFSTKTDYFNETTILVWVWPFGQTFDLTSCQAMFNIQGCHLTTDRSLYNKSHAVLIHHRDISWDLTNLPQQARPPFQKWIWMNLESPTHTPQKSGIEHLFNLTLTYRRDSDIQVPYGFLTVSTNPFVFEVPSKEKLVCWVVSNWNPEHARVKYYNELSKSIEIHTYGQAFGEYVNDKNLIPTISTCKFYLSFENSIHKDYITEKLYNAFLAGSVPVVLGPSRENYENYIPADSFIHVEDYNSPSELAKYLKEVDKNNKLYLSYFNWRKDFTVNLPRFWESHACLACDHVKRHQEYKSVGNLEKWFWN
B1: the “Which of fetuin and asialofetuin the fucosyltransferase labeled” value in series [1] was “labeled asialofetuin”. In series [2] (substrate G2, completed product Le^x), the “Activity based on reaction completion” value amounted to 2.3 pmol/min/µg. This molecule displayed a Relative activity in series [2] (substrate G2, product Le^x) of 17.

B2: FUT2: recombinant fucosyltransferase, α1-2 linked fucose (protein, UniProt Q10981 1-343, looked up)
Galactoside …: MLVVQMPFSFPMAHFILFVFTVSTIFHVQQRLAKIQAMWELPVQIPVLASTSKALGPSQLRGMWTINAIGRLGNQMGEYATLYALAKMNGRPAFIPAQMHSTLAPIFRITLPVLHSATASRIPWQNYHLNDWMEEEYRHIPGEYVRFTGYPCSWTFYHHLRQEILQEFTLHDHVREEAQKFLRGLQVNGSRPGTFVGVHVRRGDYVHVMPKVWKGVVADRRYLQQALDWFRARYSSLIFVVTSNGMAWCRENIDTSHGDVVFAGDGIEGSPAKDFALLTQCNHTIMTIGTFGIWAAYLTGGDTIYLANYTLPDSPFLKIFKPEAAFLPEWTGIAADLSPLLKH
For B2, the “Which of fetuin and asialofetuin the fucosyltransferase labeled” value in series [1] is given as “labeled asialofetuin”.

B3: α-2,6-sialyltransferase 1 (protein, UniProt P15907 1-406, looked up)
Beta-galactoside …: MIHTNLKKKFSCCVLVFLLFAVICVWKEKKKGSYYDSFKLQTKEFQVLKSLGKLAMGSDSQSVSSSSTQDPHRGRQTLGSLRGLAKAKPEASFQVWNKDSSSKNLIPRLQKIWKNYLSMNKYKVSYKGPGPGIKFSAEALRCHLRDHVNVSMVEVTDFPFNTSEWEGYLPKESIRTKAGPWGRCAVVSSAGSLKSSQLGREIDDHDAVLRFNGAPTANFQQDVGTKTTIRLMNSQLVTTEKRFLKDSLYNEGILIVWDPSVYHSDIPKWYQNPDYNFFNNYKTYRKLHPNQPFYILKPQMPWELWDILQEISPEEIQPNPPSSGMLGIIIMMTLCDQVDIYEFLPSKRKTDVCYYYQKFFDSACTMGAYHPLLYEKNLVKHLNQGTDEDIYLLGKATLPGFRTIHC
notes: recombinant human sialyltransferase, N-glycan specific
Regarding B3, the “Which of fetuin and asialofetuin the sialyltransferase labeled” value in series [3] is “only labeled asialofetuin”. Further, in the series with asialofetuin, the “Enzyme amount achieving maximal labeling of asialofetuin” value came out at 0.25 µg and the “Enzyme amount showing clear visible labeling on asialofetuin” value was 0.016 µg. Further, in series [2] (FIG. 21B), the “Time for the complete conversion of G2 to A2[6]” value was determined as 5 h. Further, the “Activity based on reaction completion” value in series [2] (substrate G2, completed product A2[6]) amounted to 0.025 pmol/min/µg. The Relative activity in series [2] (substrate G2, product A2[6]) was determined as 0.19.

B4: α-2,3-sialyltransferase 1 (protein, UniProt Q11201 1-340, looked up)
CMP-N-acetylneuraminate-beta-g …: MVTLRKRTLKVLTFLVLFIFLTSFFLNYSHTMVATTWFPKQMVLELSENLKRLIKHRPCTCTHCIGQRKLSAWFDERFNQTMQPLLTAQNALLEDDTYRWWLRLQREKKPNNLNDTIKELFRVVPGNVDPMLEKRSVGCRRCAVVGNSGNLRESSYGPEIDSHDFVLRMNKAPTAGFEADVGTKTTHHLVYPESFRELGDNVSMILVPFKTIDLEWVVSAITTGTISHTYIPVPAKIRVKQDKILIYHPAFIKYVFDNWLQGHGRYPSTGILSVIFSMHVCDEVDLYGFGADSKGNWHHYWENNPSAGAFRKTGVHDADFESNVTATLASINKIRIFKGR
notes: recombinant human sialyltransferase, Core-1 O-glycan specific
Take B4: the “Which of fetuin and asialofetuin the sialyltransferase labeled” value in series [3] is on record as “only labeled asialofetuin”. For the same molecule, in the series on asialofetuin, the “Enzyme amount achieving maximal labeling of asialofetuin” value was determined as 0.5 µg and the “Enzyme amount showing clear visible labeling on asialofetuin” value turned out to be 0.063 µg.
